How the values were obtained:
[1] = target: FnBP purified from S. aureus strain Newman (Staphylococcus aureus); test: competition ELISA on FnBP coated at 5 µg/ml; competitor anti-D121-34 F(ab')2 at 100 µg/ml
[2] = target: FnBP purified from S. aureus strain Newman (Staphylococcus aureus); test: competition ELISA on FnBP coated at 5 µg/ml; competitor anti-D320-33 F(ab')2 at 100 µg/ml

Human plasma Fn (from UniProt P02751 32-2477) (ligand)
concentration of soluble Fn at which F(ab')2 recognition of FnBP was virtually eliminated [1]: 50 µg/mL | concentration of soluble Fn at which F(ab')2 recognition of FnBP was virtually eliminated [2]: 50 µg/mL
